The text below walks through data of US20180335435A1 (METAFORA BIOSYSTEMS, published 2018).

The target of the assay is T1, human CAT1 (cationic amino acid transporter-1, SLC7A1) (human, UniProt P30825 1-629).
T1 construct: Endogenous on HEK293T cells or expressed from a human CAT1 vector in QT6, HEK293T or CHO cells; also called CAT1/SLC7A1; Hu-CAT1
In words: flow cytometry on HEK293T cells transfected with siRNA to CAT1 (n=3). Background: In flow cytometry, cells or beads pass a laser one at a time.

T1 sequence (P30825 whole entry): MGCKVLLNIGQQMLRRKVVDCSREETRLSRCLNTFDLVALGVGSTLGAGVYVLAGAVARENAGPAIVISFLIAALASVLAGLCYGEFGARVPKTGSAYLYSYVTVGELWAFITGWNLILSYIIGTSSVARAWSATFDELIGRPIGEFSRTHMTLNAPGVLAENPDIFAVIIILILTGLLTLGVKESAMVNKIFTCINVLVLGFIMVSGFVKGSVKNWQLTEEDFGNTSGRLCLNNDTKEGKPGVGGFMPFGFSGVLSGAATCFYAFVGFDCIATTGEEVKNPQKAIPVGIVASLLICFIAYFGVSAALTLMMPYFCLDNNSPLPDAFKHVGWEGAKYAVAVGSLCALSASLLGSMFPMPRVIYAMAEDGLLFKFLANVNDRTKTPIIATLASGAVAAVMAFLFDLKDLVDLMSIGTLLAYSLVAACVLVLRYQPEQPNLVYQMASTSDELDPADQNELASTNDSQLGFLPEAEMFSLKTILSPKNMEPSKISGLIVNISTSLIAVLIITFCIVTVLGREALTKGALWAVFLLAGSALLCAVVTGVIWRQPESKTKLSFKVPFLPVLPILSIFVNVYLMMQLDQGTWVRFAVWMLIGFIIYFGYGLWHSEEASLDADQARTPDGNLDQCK

B1: BLV.RBD-mFc ligand (receptor-binding domain of the bovine leukemia virus envelope glycoprotein tagged in frame with the constant fragment of mouse … (Fc fusion)
chain: WRCSLSLGNQQWMTTYNQEAKFFISIDQILEAHNQSPFCPRSPRYTLDFVNGYPKIYWPPPQGRRRFGARAMVTYDCEPRCPYVGADHFDCPHWDNASQADQGSFYVNHQTLFLHLKQCHGIFTLTWEIWGYDPLITFSLHKIPAPPQGSVDVPRDCGCKPCICTVPEVSSVFIFPPKPKDVLTITLTPKVTCVVVDISKDDPEVQFSWFVDDVEVHTAQTQPREEQFNSTFRSVSELPIMHQDWLNGKEFKCRVNSAAFPAPIEKTISKTKGRPKAPQVYTIPPPKEQMAKDKVSLTCMITDFFPEDITVEWQWNGQPAENYKNTQPIMDTDGSYFVYSKLNVQKSNWEAGNTFTCSVLHEGLHNHHTEKSLSHSPGK
notes: Used as a 1/10 dilution, detected with anti-mouse IgG1-Alexa Fluor 488; also called BLV.RBD ligand; BLV.RBD tagged with mouse Fc (mFc)
With B1, the “fold decrease of binding after siRNA against CAT1 mRNA” value turned out to be 3.5 fold.
